Reference: patent US5466669A, “Immunostimulatory agent” (Morinaga Milk Industry Co., Ltd., priority 1993, dated 1995)

Legend:
Assay type in all cases: cell-based
[1] = system: rat peritoneal mast cells; experiment: Test 1: histamine release from rat peritoneal mast cells induced by calcium ionophore A23187; conditions: for Histamine release (Relative %): A23187 5 μM, control (saline) = 100; for activity to promote the release of histamine from mast cells induced by A23187 (in words): 1 to 100 ppm
Method: This test was performed to study the activity of the peptide of the present invention to promote the release of histamine from rat peritoneal mast cells induced by the calcium ionophore A23187.
Peritoneal cells were collected from Wistar rats after intraperitoneal injection of phosphate-buffered saline (consisting of 120 mM NaCl, 10 mM Na2 PO4, 3 mM KH2 PO4, pH 7.4). Their abdoments were massaged and the buffer containing the cells was recovered. The cells were centrifuged at 300×g for 15 min and washed twice with phosphate-buffered saline. The cells from several rats were pooled for use in the experiments.
Rat peritoneal cells containing about 1×10^5 mast cells per ml were used as the target cells. A 500 μl volume of the cell suspension was incubated with 100 μl volume of the test substance [purified peptide obtained by the method as in Example 1, or human lactoferrin (Sigma Chemical Co.), or bovine lactoferrin (Morinaga Milk industry Co.)] at 37° C. for 3O min. Thereafter, histamine release from the mast cells was induced by the addition of calcium ionophore A23187 (Sigma Chemical Co.) at a final concentration of 5 μM. After 10 min of incubation the cells were centrifuged at 300×g for 15 min and the supernatant was removed and deproteinized by the addition of 2 ml of HClO4 (2%). The deproteinized sample was then centrifuged at 2000×g for 20 min and the histamine content in the supernatant was determined by the fluorophotometric analyser technique (AutoAnalyzer: Technikon). Cells in the presence of phosphate-buffered saline served as control.

[2] = system: human polymorphonuclear neutrophils; experiment: Test 3: leukotriene release from human polymorphonuclear neutrophils induced by calcium ionophore A23187; conditions: for Leukotriene released (ng) B4 / Leukotriene released (ng) C4 / Leukotriene released (ng) 20-COOH / Leukotriene released (ng) 20-OH: A23187 5 μM; for Leukotriene released (ng) B4: saline control 12; for Leukotriene released (ng) C4: saline control 18; for Leukotriene released (ng) 20-COOH: saline control 31; for Leukotriene released (ng) 20-OH: saline control 55; for Leukotriene released (ng) (Total B4): sum of B4, 20-OH and 20-COOH, saline control 98; for activity to promote the release of leukotriene B4 from polymorphonuclear neutrophils (in words): 1 to 100 ppm
Method: This test was performed to study the activity of the peptide of the present invention to promote the release of leukotriene B4 from human polymorphonuclear neutrophils induced by the calcium ionophore A23187.
Human polymorphonuclear neutrophils were prepared by fractionation of leukocytes from heparinized blood of healthy donors on a Ficoll-metrizoategradient followed by dextran sedimentation. The cells were centrifuged at 300×g, and washed three times with phosphate-buffered saline, after which less than 2% of the platelets remained. Erythrocytes were removed by exposing the cells to hypotonic conditions. The purity of the polymorphonuclear neutrophil fraction used was greater than 97% as confirmed by light microscopy.
For analysis of leukotriene release, human neutrophils suspended in phosphate-buffered saline at approximately 1×10^7 cells per ml were used as the target cells. The cells were incubated for 30 min in the presence of test substance [(purified peptide obtained by the method as in Example 1, or human lactoferrin (Sigma Chemical Co.), or bovine lactoferrin (Morinaga Milk Industry Co.)]. Leukotriene release from the neutrophils was then induced by the addition of calcium ionophore A23187 (Sigma chemical Co.) at a final concentration of 5 μM. After 30 min, the supernatants of the stimulated cells were deproteinized by addition of 2 ml of methanol-acetonitrile (1:1) overlaid with nitrogen and frozen for 12 h at -70° C. After centrifugation at 1000×g for 15 min the supernatant was evaporated to dryness in a freeze dryer, suspended in 0.5 ml of methanol-water (30:70), overlaid with nitrogen, and stored overnight at -70° C. The samples were centrifuged at 1000×g and the supernatant was assayed for the presence of leukotrienes by high pressure liquid chromatography using a reverse-phase column of Nucleosil (C18; 5 μm particles) at a column temperature of 40° C. The solvent system was a mixture of phosphate buffer (17 mM K2 HPO4 containing 0.05% EDTA), acetonitrile, and methanol (50:30:20) adjusted to pH 5.0 with phosphoric acid. The absorbance at 280 nm of the column effluent was monitored and recorded. The concentration of each eluted leukotriene was determined from the peak area by means of a computing integrator. The leukotrienes were identified from their retention times with reference to known standards. The minimum detectable quantity was 1 ng in each instance.

[3] = system: rat peritoneal mast cells; experiment: Test 2: histamine release from rat peritoneal mast cells induced by α-toxin-producing Staphylococcus aureus cells; conditions: for Histamine release (Relative %): S. aureus 121 about 1.0×10^8 cells per ml, control (saline) = 100; for activity to promote the release of histamine from mast cells induced by α-toxin-producing Staphylococcus aureus cells (in words): 1 to 100 ppm
Method: This test was performed to study the activity of the peptide of the present invention to promote the release of histamine from rat peritoneal mast cells induced by α-toxin-producing Staphylococcus aureus cells.
Staphylococcus aureus 121, an α-toxin-producing strain, was cultured overnight in Brain Heart Infusion broth at 37° C. The bacterial cells were collected by centrifugation at 4000×g for 20 min, washed with phosphate-buffered saline, and suspended in the same buffer for use in the experiment. Rat peritoneal cells were prepared as in Test 1.
The same method as in Test 1 was used, except histamine release from the mast cells was induced by the addition of α-toxin-producing Staphylococcus aureus cells at a final concentration of about 1.0×10^8 cells per ml.

B1: lactoferrin, human: human lactoferrin (Sigma Chemical Co.) (protein, UniProt P02788 20-710, looked up)
Lactotransferrin: GRRRSVQWCAVSQPEATKCFQWQRNMRKVRGPPVSCIKRDSPIQCIQAIAENRADAVTLDGGFIYEAGLAPYKLRPVAAEVYGTERQPRTHYYAVAVVKKGGSFQLNELQGLKSCHTGLRRTAGWNVPIGTLRPFLNWTGPPEPIEAAVARFFSASCVPGADKGQFPNLCRLCAGTGENKCAFSSQEPYFSYSGAFKCLRDGAGDVAFIRESTVFEDLSDEAERDEYELLCPDNTRKPVDKFKDCHLARVPSHAVVARSVNGKEDAIWNLLRQAQEKFGKDKSPKFQLFGSPSGQKDLLFKDSAIGFSRVPPRIDSGLYLGSGYFTAIQNLRKSEEEVAARRARVVWCAVGEQELRKCNQWSGLSEGSVTCSSASTTEDCIALVLKGEADAMSLDGGYVYTAGKCGLVPVLAENYKSQQSSDPDPNCVDRPVEGYLAVAVVRRSDTSLTWNSVKGKKSCHTAVDRTAGWNIPMGLLFNQTGSCKFDEYFSQSCAPGSDPRSNLCALCIGDEQGENKCVPNSNERYYGYTGAFRCLAENAGDVAFVKDVTVLQNTDGNNNEAWAKDLKLADFALLCLDGKRKPVTEARSCHLAMAPNHAVVSRMDKVERLKQVLLHQQAKFGRNGSDCPDKFCLFQSETKNLLFNDNTECLARLHGKTTYEKYLGPQYVAGITNLKKCSTSPLLEACEFLRK
For B1, the “Histamine release (Relative %)” value ([1]; 1 ppm test substance) was 115 ± 20 Relative %, the “activity to promote the release of histamine from mast cells induced by A23187 (in words)” value [1] was “little, if any, such activity” and the “Histamine release (Relative %)” value ([1]; 10 ppm test substance) was 110 ± 10 Relative %. The “Histamine release (Relative %)” value ([1]; 100 ppm test substance) was 100 ± 10 Relative %, the “Leukotriene released (ng) B4” value ([2]; 1 ppm test substance) was 11 ng and the “Leukotriene released (ng) C4” value ([2]; 1 ppm test substance) was 12 ng. For the same molecule, the “Leukotriene released (ng) 20-COOH” value ([2]; 1 ppm test substance) was 41 ng, the “Leukotriene released (ng) 20-OH” value ([2]; 1 ppm test substance) was 80 ng and the “Leukotriene released (ng) (Total B4)” value ([2]; 1 ppm test substance) was 131 ng. For the same molecule, the “activity to promote the release of leukotriene B4 from polymorphonuclear neutrophils (in words)” value [2] was “little, if any, such activity”, the “Leukotriene released (ng) B4” value ([2]; 10 ppm test substance) was 10 ng and the “Leukotriene released (ng) C4” value ([2]; 10 ppm test substance) was 13 ng. For the same molecule, the “Leukotriene released (ng) 20-COOH” value ([2]; 10 ppm test substance) was 26 ng, the “Leukotriene released (ng) 20-OH” value ([2]; 10 ppm test substance) was 50 ng and the “Leukotriene released (ng) (Total B4)” value ([2]; 10 ppm test substance) was 86 ng. The “Leukotriene released (ng) B4” value ([2]; 100 ppm test substance) was 10 ng, the “Leukotriene released (ng) C4” value ([2]; 100 ppm test substance) was 17 ng and the “Leukotriene released (ng) 20-COOH” value ([2]; 100 ppm test substance) was 26 ng. The “Leukotriene released (ng) 20-OH” value ([2]; 100 ppm test substance) was 42 ng, the “Leukotriene released (ng) (Total B4)” value ([2]; 100 ppm test substance) was 76 ng and the “Histamine release (Relative %)” value ([3]; 1 ppm test substance) was 180 ± 5 Relative %. The “activity to promote the release of histamine from mast cells induced by α-toxin-producing Staphylococcus aureus cells (in words)” value [3] was “little, if any, such activity”, the “Histamine release (Relative %)” value ([3]; 10 ppm test substance) was 115 ± 15 Relative % and the “Histamine release (Relative %)” value ([3]; 100 ppm test substance) was 120 ± 20 Relative %.

B2: lactoferrin, bovine: bovine lactoferrin (Morinaga Milk industry Co.) (protein, UniProt P24627 20-708, looked up)
Lactotransferrin: APRKNVRWCTISQPEWFKCRRWQWRMKKLGAPSITCVRRAFALECIRAIAEKKADAVTLDGGMVFEAGRDPYKLRPVAAEIYGTKESPQTHYYAVAVVKKGSNFQLDQLQGRKSCHTGLGRSAGWIIPMGILRPYLSWTESLEPLQGAVAKFFSASCVPCIDRQAYPNLCQLCKGEGENQCACSSREPYFGYSGAFKCLQDGAGDVAFVKETTVFENLPEKADRDQYELLCLNNSRAPVDAFKECHLAQVPSHAVVARSVDGKEDLIWKLLSKAQEKFGKNKSRSFQLFGSPPGQRDLLFKDSALGFLRIPSKVDSALYLGSRYLTTLKNLRETAEEVKARYTRVVWCAVGPEEQKKCQQWSQQSGQNVTCATASTTDDCIVLVLKGEADALNLDGGYIYTAGKCGLVPVLAENRKSSKHSSLDCVLRPTEGYLAVAVVKKANEGLTWNSLKDKKSCHTAVDRTAGWNIPMGLIVNQTGSCAFDEFFSQSCAPGADPKSRLCALCAGDDQGLDKCVPNSKEKYYGYTGAFRCLAEDVGDVAFVKNDTVWENTNGESTADWAKNLNREDFRLLCLDGTRKPVTEAQSCHLAVAPNHAVVSRSDRAAHVKQVLLHQQALFGKNGKNCPDKFCLFKSETKNLLFNDNTECLAKLGGRPTYEEYLGTEYVTAIANLKKCSTSPLLEACAFLTR
With B2 the “Histamine release (Relative %)” value ([1]; 1 ppm test substance) was 105 ± 25 Relative %, the “activity to promote the release of histamine from mast cells induced by A23187 (in words)” value [1] was “little, if any, such activity” and the “Histamine release (Relative %)” value ([1]; 10 ppm test substance) was 110 ± 20 Relative %. The “Histamine release (Relative %)” value ([1]; 100 ppm test substance) was 125 ± 25 Relative %, the “Leukotriene released (ng) B4” value ([2]; 1 ppm test substance) was 9 ng and the “Leukotriene released (ng) C4” value ([2]; 1 ppm test substance) was 17 ng. The “Leukotriene released (ng) 20-COOH” value ([2]; 1 ppm test substance) was 41 ng, the “Leukotriene released (ng) 20-OH” value ([2]; 1 ppm test substance) was 50 ng and the “Leukotriene released (ng) (Total B4)” value ([2]; 1 ppm test substance) was 100 ng. For the same molecule, the “activity to promote the release of leukotriene B4 from polymorphonuclear neutrophils (in words)” value [2] was “little, if any, such activity”, the “Leukotriene released (ng) B4” value ([2]; 10 ppm test substance) was 11 ng and the “Leukotriene released (ng) C4” value ([2]; 10 ppm test substance) was 15 ng. The “Leukotriene released (ng) 20-COOH” value ([2]; 10 ppm test substance) was 36 ng, the “Leukotriene released (ng) 20-OH” value ([2]; 10 ppm test substance) was 60 ng and the “Leukotriene released (ng) (Total B4)” value ([2]; 10 ppm test substance) was 107 ng. For the same molecule, the “Leukotriene released (ng) B4” value ([2]; 100 ppm test substance) was 11 ng, the “Leukotriene released (ng) C4” value ([2]; 100 ppm test substance) was 15 ng and the “Leukotriene released (ng) 20-COOH” value ([2]; 100 ppm test substance) was 35 ng. The “Leukotriene released (ng) 20-OH” value ([2]; 100 ppm test substance) was 59 ng, the “Leukotriene released (ng) (Total B4)” value ([2]; 100 ppm test substance) was 105 ng and the “Histamine release (Relative %)” value ([3]; 1 ppm test substance) was 150 ± 10 Relative %. For the same molecule, the “activity to promote the release of histamine from mast cells induced by α-toxin-producing Staphylococcus aureus cells (in words)” value [3] was “little, if any, such activity”, the “Histamine release (Relative %)” value ([3]; 10 ppm test substance) was 160 ± 10 Relative % and the “Histamine release (Relative %)” value ([3]; 100 ppm test substance) was 110 ± 15 Relative %.
